First the molecules themselves.
B1: atacicept (Fc fusion, human, UniProt O14836 1-165, looked up)
chain: MSGLGRSRRGGRSRVDQEERFPQGLWTGVAMRSCPEEQYWDPLLGTCMSCKTICNHQSQRTCAAFCRSLSCRKEQGKFYDHLLRDCISCASICGQHPKQCAYFCENKLRSPVNLPPELRRQRSGEVENNSDNSGRYQGLEHRGSEASPALPGLKLSADQVALVYS
notes: also called TACI-Ig; soluble receptor fusion protein of TACI
B2: Flag-zippered (zz) 12.6 form of APRIL (amino acids 110-250) (domain or fragment, human, UniProt O75888 110-250, looked up)
chain: KQKKQHSVLHLVPINATSKDDSDVTEVMWQPALRRGRGLQAQGYGVRIQDAGVYLLYSQVLFQDVTFTMGQVVSREGQGRQETLFRCIRSMPSHPDRAYNSCYSAGVFHLHQGDILSVIIPRARAKLNLSPHGTFLGFVKL
notes: human APRIL amino acids 110-250, downstream of the otPA leader, Flag and the zz12.6 trimerization domain; The APRIL chain of the heterotrimer m3; the zipper itself may help to hold the chains together; also called Flag-zz12.6 APRIL; APRIL NF zz12.6; source: CHO DXB11, co-expressed with Hisx6-zz12.6 BLyS, purified from conditioned media (Ni-NTA, heparin, SEC); not shown: Flag, N-terminal, kept; …
B3: a proliferation-inducing ligand (APRIL) homotrimer, recombinant (ligand, human, UniProt O75888 110-250, looked up)
chain: B2 chain
notes: APRIL, recombinant soluble homotrimer; Six lots were used for SPR; also called homotrimeric APRIL
B4: B-cell maturation antigen (BCMA)-immunoglobulin (Ig) (Fc fusion, UniProt Q02223 1-54, looked up)
chain: MLQMAGQCSQNEYFDSLLHACIPCQLRCSSNTPPLTCQRYCNASVTNSVKGTNA
notes: BCMA, soluble receptor-Fc fusion protein; Construct not described in the main text; Additional file 1 may describe it; also called BCMA-Ig

Common to all, as to settings: both partners purified
Experiment [1] deals with T1, recombinant BLyS/APRIL heterotrimer (Hisx6-zz12.6 BLyS with Flag-zz12.6 APRIL), predominantly 2 APRIL to 1 … (human, UniProt O75888 110-250; Q9Y275 141-285).
T1 construct: human APRIL amino acids 110-250, downstream of the otPA leader, Flag and the proprietary zz12.6 trimerization domain; The preparation holds a small fraction of 1 APRIL to 2 BLyS (AB2) heterotrimers; also called heterotrimers; HT; not shown: Flag, N-terminal, kept; zz12.6 trimerization domain, N-terminal, kept; His6, N-terminal, kept; copies: 2 + 1
T1 sequence (Q9Y275 141-285, chain 2 of 2, one chain of several): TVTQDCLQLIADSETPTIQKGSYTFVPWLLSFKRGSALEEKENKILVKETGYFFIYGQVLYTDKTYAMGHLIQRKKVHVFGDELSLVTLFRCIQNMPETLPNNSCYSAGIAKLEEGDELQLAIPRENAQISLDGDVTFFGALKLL
The experiment in a line: SPR; Biacore 3000; atacicept, BCMA-Ig and BAFF-R-Ig covalently immobilized on a CM4 chip; ligands ~0.05 to 20 nMol/L flowed at 50 ul/min, 25 C; 20 mmol/L sodium phosphate, 150 mmol/L NaCl, 0.05% polysorbate 20, pH 7.5; KD from ka and kd, global fit to a 1:1 model; stoichiometry not determined. (Surface plasmon resonance follows binding to a sensor surface in real time, without labels.)

In experiment [2] the target is T2, Hisx6-zz12.6 form of BLyS (amino acids 141-285) (human, UniProt Q9Y275 141-285).
T2 construct: The BLyS chain of the heterotrimer m3; the zipper itself may help to hold the chains together; also called BLyS NH6 zz12.6; His-zz12.6 BLyS; source: CHO DXB11, co-expressed with Flag-zz12.6 APRIL, purified from conditioned media (Ni-NTA, heparin, SEC); not shown: His6, N-terminal, kept; zz12.6 trimerization domain, N-terminal, kept
T2 sequence (Q9Y275 141-285): as the sequence (Q9Y275 141-285, chain 2 of 2, one chain of several) above
The experiment in a line: SEC-MALS; heterotrimer co-expressed in CHO, purified by Ni-NTA (His on BLyS), heparin and SEC; ratio of the chains by Western blot (anti-His, anti-Flag), confirmed by SEC-MALS.

Experiment [3] addresses B1. The experiment in a line: SPR; Biacore 3000; atacicept, BCMA-Ig and BAFF-R-Ig covalently immobilized on a CM4 chip; ligands ~0.05 to 20 nMol/L flowed at 50 ul/min, 25 C; 20 mmol/L sodium phosphate, 150 mmol/L NaCl, 0.05% polysorbate 20, pH 7.5; KD from ka and kd, global fit to a 1:1 model; stoichiometry not determined.
For experiment [4], the target named is B3. The description is as above.

Broadly, the Kd is the equilibrium constant for the complex coming apart. As for B1, the Kd in experiment [1] was 0.4 nM. Broadly, the stoichiometry N is the number of molecules, sites or subunits per partner or assembly. For the molecule B2, the “stoichiometry N” value in experiment [2] is 2 APRIL per BLyS. In experiment [3], B3 registered a Kd of 0.1 to 0.2 nM. With B4, the Kd in experiment [1] was 0.01 nM; in experiment [4], 0.0001 to 0.0003 nM.
